Source: PMC10364585

Target: recombinant spider silk protein eADF4(C16)
Assay: seeded turbidity kinetics at 340 nm; monomeric eADF4(C16) 10-40 uM with 0.5% or 30% (w/w) preformed seeds (sonicated mature fibrils of the same protein), 150 mM KPi pH 8.0, quiescent, 20-40 C; global fit with AmyloFit (secondary nucleation model)

Substance “recombinant spider silk protein eADF4(C16)” has a rate constant for primary nucleation kn of 1e-09 M⁻¹ s⁻¹.
